Where a chain is given by its changes, count along the chain named. Blank lines part the entries; values can stand above or below the binder they belong to.
Biological target: T1, recombinant human IGF-1R-his (human, UniProt P08069 31-932)
T1 construct: Recombinant his-tagged protein; also called hIGF-1R-his; hIGF1R-his; not shown: his tag
Test: ELISA, coated hIGF-1R-his
Description: The binding activity of the nanobody-Fc fusion proteins obtained after two rounds of mutant construction with the antigen proteins (recombinant human IGF-1R-His) was detected by an ELISA method: 2 μg/mL recombinant human IGF1R-His antigen proteins were added to a 96-well ELISA plate, at 30 μL/well, for coating overnight at 4° C. The plate was washed three times with PBST. PBS containing 5% skim milk powder was added for blocking at room temperature for 2 h. The plate was washed three times with PBST. The nanobody-Fc fusion proteins were serially diluted 3-fold, and the nanobody-Fc fusion proteins of different concentrations were added to each well at 30 μL/well and incubated at room temperature for 1 h. The plate was washed three times with PBST, and horseradish peroxidase-labeled anti-human Fc antibodies were added at 30 μL/well and incubated at room temperature for 50 min. The plate was washed three times with PBST. TMB substrate solution was added at 30 μL/well for color development in the dark for 1-5 min, 30 μL of 2 M hydrochloric acid was added to terminate the reaction, and the OD₄₅₀ was read using a microplate reader. Curve fitting was conducted and the EC₅₀ value was calculated using Graphpad Prism software.

T1 sequence (P08069 31-932 limits assumed): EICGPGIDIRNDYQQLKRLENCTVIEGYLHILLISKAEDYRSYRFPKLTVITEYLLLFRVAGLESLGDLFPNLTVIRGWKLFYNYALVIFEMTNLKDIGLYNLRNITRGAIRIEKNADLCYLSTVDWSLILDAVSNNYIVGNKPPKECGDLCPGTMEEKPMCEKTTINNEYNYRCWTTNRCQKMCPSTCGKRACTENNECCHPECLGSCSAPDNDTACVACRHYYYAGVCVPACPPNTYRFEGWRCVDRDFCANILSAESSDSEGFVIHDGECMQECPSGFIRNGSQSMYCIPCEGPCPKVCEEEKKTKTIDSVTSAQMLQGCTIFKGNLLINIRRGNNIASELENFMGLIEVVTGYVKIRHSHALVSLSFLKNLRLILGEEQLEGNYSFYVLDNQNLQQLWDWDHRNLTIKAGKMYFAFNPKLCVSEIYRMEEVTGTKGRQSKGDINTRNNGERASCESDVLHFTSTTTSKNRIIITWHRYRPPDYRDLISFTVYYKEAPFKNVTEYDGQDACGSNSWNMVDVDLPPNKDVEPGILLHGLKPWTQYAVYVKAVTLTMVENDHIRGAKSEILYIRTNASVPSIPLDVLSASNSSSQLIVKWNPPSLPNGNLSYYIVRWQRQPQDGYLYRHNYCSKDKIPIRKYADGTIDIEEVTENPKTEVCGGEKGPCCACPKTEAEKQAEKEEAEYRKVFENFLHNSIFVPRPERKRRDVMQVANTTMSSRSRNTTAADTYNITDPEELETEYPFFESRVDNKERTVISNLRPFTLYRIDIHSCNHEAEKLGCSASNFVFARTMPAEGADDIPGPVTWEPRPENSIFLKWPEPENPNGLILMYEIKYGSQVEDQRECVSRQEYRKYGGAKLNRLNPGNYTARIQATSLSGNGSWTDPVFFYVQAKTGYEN

B1: 5115-H1-M1-Fc (Fc fusion)
chain: EVQLVESGGGLVQPGGSLRLSCAASGRTFSSFVMSWFRQAPGKEREFVSAISGSGSRSRYADSVKGRFTISRDNSKNTLYLQMNSLRAEDTAVYYCAANPRRATPDYTQYAYWGQGTLVTVSS
notes: VHH-Fc; Fc not specified; not shown: Fc
EC50: 1.22 ng/mL

B2: 5115-H1-M8-Fc (Fc fusion)
chain: B1 chain with S58Q, Y107L, T108S
notes: as for B1
EC50: 2 ng/mL

B4: 5115-H1-M20-Fc (Fc fusion)
chain: B1 chain with S30R, S58Y
notes: as for B1
EC50: 2.21 ng/mL

B6: 5115-H1-M16-Fc (Fc fusion)
chain: B1 chain with G26H, S58A, Y107L
notes: as for B1
EC50: 3.61 ng/mL

B11: 5115-H1-M7-Fc (Fc fusion)
chain: B1 chain with S54R, S58A, R59Y, Y107L, T108R
notes: as for B1
EC50: 3.04 ng/mL

B16: 5115-H1-M6-Fc (Fc fusion)
chain: B1 chain with T28E, S35A, E44G, R45L, S58A, Y107L, Q109S
notes: as for B1
EC50: 2.62 ng/mL

B17: 5115-H1-M22-Fc (Fc fusion)
chain: B1 chain with Y107L, T108L
notes: as for B1
EC50: 1.79 ng/mL

B18: 5115-H1-M13-Fc (Fc fusion)
chain: B1 chain with G26L, R27G, S58A
notes: as for B1
EC50: 2.9 ng/mL

B22: 5115-H1-M19-Fc (Fc fusion)
chain: B1 chain with S58M, Y107L, T108H
notes: as for B1
EC50: 1.93 ng/mL

B23: 5115-H1-M2-Fc (Fc fusion)
chain: B1 chain with S58A, Y107L, T108L
notes: as for B1
EC50: 1.5 ng/mL

B24: 5115-H1-M18-Fc (Fc fusion)
chain: B1 chain with T28R, S58A, Y107L
notes: as for B1
EC50: 2.89 ng/mL

B27: 5115-H1-M23-Fc (Fc fusion)
chain: B1 chain with S30K, S58A, Y107M
notes: as for B1
EC50: 1.74 ng/mL

B28: 5115-H1-M4-Fc (Fc fusion)
chain: B1 chain with T28F, S58F
notes: as for B1
EC50: 1.94 ng/mL

B30: 5115-H1-M12-Fc (Fc fusion)
chain: B1 chain with S58A, Y107L, T108R
notes: as for B1
EC50: 1.41 ng/mL

B31: 5115-H1-M11-Fc (Fc fusion)
chain: B1 chain with R27I, T28R, S58H
notes: as for B1
EC50: 2.51 ng/mL

B37: 5115-H1-M5-Fc (Fc fusion)
chain: B1 chain with T28Y, S35A, E44G, R45L, S56L, S58A, Y107L, Q109S
notes: as for B1
EC50: 5.88 ng/mL

B40: 5115-H1-M21-Fc (Fc fusion)
chain: B1 chain with R27K, S58T
notes: as for B1
EC50: 3.35 ng/mL

B41: 5115-H1-M14-Fc (Fc fusion)
chain: B1 chain with S58M, Y107L
notes: as for B1
EC50: 4.31 ng/mL

B42: 5115-H1-M9-Fc (Fc fusion)
chain: B1 chain with S58L, Y107L, T108L
notes: as for B1
EC50: 2.3 ng/mL

B43: 5115-H1-M15-Fc (Fc fusion)
chain: B1 chain with S58M, Y107L, T108R
notes: as for B1
EC50: 2.67 ng/mL

The next lines start with the values.

EC50: 3.64 ng/mL
B3: 5115-H4-M34-3-Fc (Fc fusion)
chain: B1 chain with R27G, S35A, E44G, R45L, S58A, Y107L, A111K
notes: as for B1

EC50: 1.58 ng/mL
B5: 5115-H1-M32-Fc (Fc fusion)
chain: B1 chain with T28A, F29R, S58V
notes: as for B1

EC50: 1.43 ng/mL
B7: 5115-H1-M36-Fc (Fc fusion)
chain: B1 chain with S30P, S58A, R59Y, Y107L, T108R
notes: as for B1

EC50: 1.06 ng/mL
B8: 5115-H1-M39-Fc (Fc fusion)
chain: B1 chain with S58F, Y107L, T108Q
notes: as for B1

EC50: 5.36 ng/mL
B9: 5115-H4-M34-7-Fc (Fc fusion)
chain: B1 chain with S35A, E44G, R45L, S56R, R57Q, S58A, Y107L, T108S, Q109R
notes: as for B1

EC50: 1.18 ng/mL
B10: 5115-H1-M28-Fc (Fc fusion)
chain: B1 chain with S58Y, Y107L, T108K
notes: as for B1

EC50: 4.05 ng/mL
B12: 5115-H4-M34-9-Fc (Fc fusion)
chain: B1 chain with R27P, T28A, S35A, E44G, R45L, S58A, Y107L
notes: as for B1

EC50: 2.05 ng/mL
B13: 5115-H1-M34-Fc (Fc fusion)
chain: B1 chain with S58M, Y107M, T108R
notes: as for B1

EC50: 6.24 ng/mL
B14: 5115-H4-M34-4-Fc (Fc fusion)
chain: B1 chain with R27G, S35A, E44G, R45L, S54F, S58A, Y107L
notes: as for B1

EC50: 3.92 ng/mL
B15: 5115-H4-M34-1-Fc (Fc fusion)
chain: B1 chain with S30N, S31R, S35A, E44G, R45L, S56Q, S58A, Y107L
notes: as for B1

EC50: 0.215 nM
B19: 5115-H4-M25-Fc (Fc fusion)
chain: B1 chain with R27V, E44G, R45L, S58A, R59L, Y107L
notes: as for B1

EC50: 0.299 nM
B20: 5115-H4-M28-Fc (Fc fusion)
chain: B1 chain with E44G, R45L, S54G, S58A, R59Y, T69A, Y107L, T108R
notes: as for B1

EC50: 2.15 ng/mL
B21: 5115-H4-M34-5-Fc (Fc fusion)
chain: B1 chain with G26M, R27T, S35A, E44G, R45L, S54H, S58A, Y107L
notes: as for B1

EC50: 1.47 ng/mL
B25: 5115-H1-M35-Fc (Fc fusion)
chain: B1 chain with S58A, R59L, Y107L, T108R
notes: as for B1

EC50: 1.33 ng/mL
B26: 5115-H1-M25-Fc (Fc fusion)
chain: B1 chain with T28F, S58A, T108S
notes: as for B1

EC50: 3.79 ng/mL
B29: 5115-H4-M34-8-Fc (Fc fusion)
chain: B1 chain with S31T, S35A, E44G, R45L, Y107L
notes: as for B1

EC50: 1.15 ng/mL
B32: 5115-H1-M33-Fc (Fc fusion)
chain: B1 chain with G26M, R27P
notes: as for B1

EC50: 1.83 ng/mL
B33: 5115-H1-M24-Fc (Fc fusion)
chain: B1 chain with S31G, S35A, E44G, R45L, S54T, S58A, Y107L
notes: as for B1

EC50: 2.45 ng/mL
B34: 5115-H1-M30-Fc (Fc fusion)
chain: B1 chain with R27A, T28R, S58H
notes: as for B1

EC50: 0.33 nM
B35: 5115-H4-M3-Fc (Fc fusion)
chain: B1 chain with S35A, E44G, R45L, S58A
notes: as for B1

EC50: 1.52 ng/mL
B36: 5115-H1-M26-Fc (Fc fusion)
chain: B1 chain with S58Y, R59T, Y107L, T108M
notes: as for B1

EC50: 1.79 ng/mL
B38: 5115-H1-M27-Fc (Fc fusion)
chain: B1 chain with F29L, S35A, E44G, R45L, S56L, S58A, R102Y, Y107L
notes: as for B1

EC50: 1.84 ng/mL
B39: 5115-H1-M31-Fc (Fc fusion)
chain: B1 chain with S58A, Y107M, T108R
notes: as for B1

EC50: 1.23 ng/mL
B44: 5115-H1-M40-Fc (Fc fusion)
chain: B1 chain with S58Q, Y107L, T108R
notes: as for B1

EC50: 1.62 ng/mL
B45: 5115-H1-M29-Fc (Fc fusion)
chain: B1 chain with S58A, R59Y, Y107L, T108R
notes: as for B1

Source: patent US20250145723A1 (MINGHUI PHARMACEUTICAL HANGZHOU, published 2025)
